Data reported in patent publication US20150284465A1 (Chugai, published 2015).

Experiments:
[1] = target: T1, SR344 (N-terminal 1st to 344th amino acids of soluble human IL-6R) (human, UniProt P08887 20-344, limits assumed); assay: cell-based or functional assay
T1 sequence (looked up): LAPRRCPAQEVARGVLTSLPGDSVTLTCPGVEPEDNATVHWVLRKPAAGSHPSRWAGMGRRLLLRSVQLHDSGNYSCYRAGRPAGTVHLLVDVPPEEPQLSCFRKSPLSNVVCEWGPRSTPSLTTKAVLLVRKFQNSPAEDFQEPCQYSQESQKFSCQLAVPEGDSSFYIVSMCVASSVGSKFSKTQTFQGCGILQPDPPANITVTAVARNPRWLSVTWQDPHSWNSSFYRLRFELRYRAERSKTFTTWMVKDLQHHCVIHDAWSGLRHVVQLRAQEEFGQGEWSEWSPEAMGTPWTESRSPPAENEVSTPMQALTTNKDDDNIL

[2] = target: T2, recombinant human IL-6R sR (R&D systems) (human, UniProt P08887 20-358); assay: SPR (Biacore T100), antibody captured on Protein A, rhIL-6sR as analyte, 25 C
T2 construct: Bought soluble receptor; also called rhIL-6sR; rhIL-s6R
T2 sequence (looked up): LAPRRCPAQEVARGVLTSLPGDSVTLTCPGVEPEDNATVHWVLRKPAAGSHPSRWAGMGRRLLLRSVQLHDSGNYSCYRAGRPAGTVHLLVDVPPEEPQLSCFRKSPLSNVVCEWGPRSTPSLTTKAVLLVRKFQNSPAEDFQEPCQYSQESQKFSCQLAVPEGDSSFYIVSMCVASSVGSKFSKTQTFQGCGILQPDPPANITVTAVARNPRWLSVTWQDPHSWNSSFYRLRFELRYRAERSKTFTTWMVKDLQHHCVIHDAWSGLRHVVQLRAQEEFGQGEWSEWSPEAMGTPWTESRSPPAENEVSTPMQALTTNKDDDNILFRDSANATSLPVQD
Method: The antigen-antibody interaction was measured by immobilizing 4,400 to 5,000 RU of rec-Protein A (Zymed) immobilized onto a sensor chip by the amine coupling method, binding various antibodies onto the chip, and then flowing the antigen over the chip as an analyte. For the antigen, various concentrations of rhIL-6sR were used. All measurements were carried out at 25° C. The kinetic parameters, association rate constant kₐ (1/Ms) and dissociation rate constant kd (1/s) were calculated from the sensorgrams obtained by measurement. Then, KD (M) was determined based on the rate constants. The respective parameters were determined using Biacore T100 Evaluation Software (Biacore).

[3] = target: T1, SR344 (N-terminal 1st to 344th amino …); assay: SPR (Biacore T100), antibody captured on Protein A/G, antigen as analyte, 37 C
Method: (§1) The antigen-antibody interaction was measured by immobilizing purified Recomb Protein A/G (Pierce) (hereinafter “Protein A/G”) onto a sensor chip, binding various antibodies onto the chip, and then flowing the antigen as an analyte over the chip. Various concentrations of rhIL-6sR (R&D systems) and recombinant soluble IL-6 receptor (SR344 prepared in Example 1) were used as the antigen. The sugar chain structure of rhIL-6sR produced by baculovirus-infected insect cells is of high-mannose type. On the other hand, the sugar chain structure of SR344 produced by CHO cells is assumed to be of the complex sugar chain type with sialic acid at its end. Since the sugar chain structure of soluble IL-6 receptor in an actual human body is assumed to be of the complex sugar chain type with sialic acid at its end, SR344 is expected to have a structure closer to that of soluble IL-6 receptor in the human body. Thus, a comparison test between rhIL-6sR and SR344 was carried out in this experiment.
(§2) A sensor chip was prepared by immobilizing about 3,000 RU of Protein A/G onto CM5 (Biacore) with the amine coupling method. […] The running buffer used was HBS-EP+, and the flow rate was 20 μl/min. Each antibody was prepared so that about 100 RU of the antibody was bound to Protein A/G. For the analyte, rhIL-6sR was prepared at 0, 0.156, 0.313, and 0.625 μg/ml using HBS-EP+, while SR344 was adjusted to 0, 0.0654, 0.131, and 0.261 μg/ml. […] After three minutes of interaction, the solution was switched with HBS-EP+ (Biacore), and the dissociation phase was monitored for ten minutes. After measurement of the dissociation phase, the sensor chip was regenerated by washing with 10 μl of 10 mM glycine-HCl (pH 1.5). The association, dissociation, and regeneration constituted one analytic cycle. All experiments were carried out at 37° C.

[4] = target: T2, recombinant human IL-6R sR (R&D systems); assay: as above
Method: as §1, §2

[5] = target: T1, SR344 (N-terminal 1st to 344th amino …); assay: as above; remark: listed apart in the source
Method: as §2
(§3) The obtained sensorgrams were kinetically analyzed using Biacore T100 Evaluation Software, which is a data analysis software specific for Biacore (Table 3). […] All measurements described hereinafter in the Examples were carried out at 37° C. to kinetically analyze the antigen-antibody reaction using SR344 and protein A/G.

[6] = target: T2, recombinant human IL-6R sR (R&D systems); assay: as above; remark: listed apart in the source
Method: as §2, §3

[7] = target: T1, SR344 (N-terminal 1st to 344th amino …); assay: SPR (Biacore T100), antibody captured on Protein A/G, SR344 as analyte, 37 C
Method: This measurement was carried out under the same conditions described in Example 2. The running buffer used was HBS-EP+, and the flow rate was 20 μl/min. Each antibody was prepared so that about 100 RU of the antibody was bound to Protein A/G. SR344 was prepared at 0, 0.065, 0.131, and 0.261 μg/ml using HBS-EP+ and used as an analyte. In the first step of the measurement, the antibody in solution was bound to Protein A/G, and the analyte solution was allowed to interact therewith. After three minutes of interaction, the solution was switched to HBS-EP+, and the dissociation phase was monitored for 10 or 15 minutes. After measurement of the dissociation phase, the sensor chip was regenerated by washing with 10 μl of 10 mM glycine-HCl (pH 1.5). The association, dissociation, and regeneration constitute one analysis cycle. Each antibody was measured according to this cycle.
The sensorgram was kinetically analyzed using the Biacore-specific data analysis software, Biacore T100 Evaluation Software.

[8] = target: T1, SR344 (N-terminal 1st to 344th amino …); assay: SPR (Biacore T100), Protein A/G capture, SR344 at 0, 0.36 and 1.4 µg/ml, 15 min dissociation, 37 C
[9] = target: T1, SR344 (N-terminal 1st to 344th amino …); assay: SPR (Biacore T100), Protein A/G capture, SR344 as analyte, 37 C
[10] = target: T1, SR344 (N-terminal 1st to 344th amino …); assay: SPR (Biacore T100), antibody captured on Protein A/G, SR344 as analyte, 37 C; remark: listed apart in the source
Method: The antigen-antibody interaction was measured by immobilizing purified Recomb Protein A/G (Pierce) (hereinafter “Protein A/G”) onto a sensor chip, binding various antibodies onto the chip, and then flowing the antigen over the chip as an analyte. Various concentrations of recombinant soluble IL-6 receptor (SR344) were used as the antigen. The measurement conditions were the same as described in Example 2.
Kinetic analysis was carried out using Biacore-specific data analysis software Biacore T100 Evaluation Software.

[11] = target: T1, SR344 (N-terminal 1st to 344th amino …); assay: as above; remark: listed apart in the source

B1: RDC-23 (antibody, V domains shown)
VH: QVQLQESGPGLVRPSQTLSLTCTVSGYSITSDHAWSWVRQPPGRGLEWIGYISYSGITTYNPSLKSRVTMLRDTSKNQFSLRLSSVTAADTAVYYCARVLARITAMDYWGQGSLVTVSS
VL: DIQMTQSPSSLSASVGDRVTITCRASQDISSYLNWYQQKPGKAPKLLIYYTSRLHSGVPSRFSGSGSGTDFTFTISSLQPEDIATYYCGQGNRLPYTFGQGTKVEIK
notes: also called RDC-5H/RDC-11L
[1]
  BaF3/gp130 neutralizing activity, 100% inhibitory concentration against WT: ~100 fold
[2]
  Kd: 0.025 nM
  koff: 3.1e-05 s⁻¹
  kon: 1.2e+06 M⁻¹ s⁻¹
[3]
  Kd: 0.067 nM
  koff: 4.3e-05 s⁻¹
  kon: 640000 M⁻¹ s⁻¹
[4]
  Kd: 0.028 nM
  koff: 4.5e-05 s⁻¹
  kon: 1.6e+06 M⁻¹ s⁻¹
[5]
  fold improved affinity against WT: 40 to 60 fold
[6]
  fold improved affinity against WT: 40 to 60 fold
[7]
  Kd: 0.067 nM
  koff: 4.3e-05 s⁻¹
  kon: 640000 M⁻¹ s⁻¹

B2: F2H/L39-IgG1 (antibody, V domains shown)
VH: QVQLQESGPGLVKPSETLSLTCAVSGYSISDDHAWSWVRQPPGEGLEWIGYISYSGITNYNPSLQDRVTISRDNSKNTLYLQMNSLRAEDTAVYYCARLLARATAMDYWGQGILVTVSS
VL: DIQMTQSPSSLSASVGDSVTITCQASEDISSYLNWYQQKPGKAPELLIYYGSELESGVPSRFSGSGSGTDFTFTISSLEAEDAATYYCGQGNRLPYTFGQGTKVEIER
[1]
  BaF3/gp130 neutralizing activity, 100% inhibitory concentration against WT: ≥ 100 fold
[8]
  Kd: 0.052 nM
  koff: 4e-05 s⁻¹
  kon: 770000 M⁻¹ s⁻¹
[9]
  ka relative to PF1-IgG1: ~0.5 fold

B3: H53/L28 (antibody, IgG1, V domains shown)
VH: QVQLQESGPGLVKPSETLSLTCAVSGYSISDDHAWSWVRQPPGEGLEWIGYISYSGITNYNPSLKGRVTISRDTSKNQFSLKLSSVTAADTAAYYCARSLARTTAMDYWGEGTLVTVSS
VL: DIQMTQSPSSLSASVGDSVTITCQASQDISSYLNWYQQKPGKAPELLIYYGSELHSGVPSRFSGSGSGTDFTFTISSLEAEDAATYYCQQGNSLPYTFGQGTKVEIE
notes: Made from the vectors of the IgG1 antibody WT
[10]
  Kd: 0.68 nM
  koff: 0.00052 s⁻¹
  kon: 760000 M⁻¹ s⁻¹
[11]
  fold improved affinity against WT: ~6 fold
[7]
  Kd: 0.68 nM
  koff: 0.00052 s⁻¹
  kon: 760000 M⁻¹ s⁻¹
